Results reported in PMC6894070, “The Plasmodium falciparum Hsp70-x chaperone assists the heat stress response of the malaria parasite” (The FASEB Journal, 2019).

Key:
[1] = biological target: T1, human heat shock cognate protein 70 (Hsc70), full length (human, UniProt P11142 1-646); test: NMR titration; 15N-labelled PFA0660wJ titrated with unlabelled chaperone; HSQC peak intensity changes; 25°C; 20 mM sodium phosphate pH 7.4, 150 mM NaCl, 2 mM DTT; details: both partners purified
T1 construct: also called HSPA8; heat shock protein family A (hspa) member 8

[2] = biological target: Plasmodium falciparum Hsp70-x (PfHsp70-x), full-length construct aa 25-679 (P. falciparum, UniProt K7NTP5 25-679); test: cell-based or functional assay

T1 sequence (P11142 whole entry): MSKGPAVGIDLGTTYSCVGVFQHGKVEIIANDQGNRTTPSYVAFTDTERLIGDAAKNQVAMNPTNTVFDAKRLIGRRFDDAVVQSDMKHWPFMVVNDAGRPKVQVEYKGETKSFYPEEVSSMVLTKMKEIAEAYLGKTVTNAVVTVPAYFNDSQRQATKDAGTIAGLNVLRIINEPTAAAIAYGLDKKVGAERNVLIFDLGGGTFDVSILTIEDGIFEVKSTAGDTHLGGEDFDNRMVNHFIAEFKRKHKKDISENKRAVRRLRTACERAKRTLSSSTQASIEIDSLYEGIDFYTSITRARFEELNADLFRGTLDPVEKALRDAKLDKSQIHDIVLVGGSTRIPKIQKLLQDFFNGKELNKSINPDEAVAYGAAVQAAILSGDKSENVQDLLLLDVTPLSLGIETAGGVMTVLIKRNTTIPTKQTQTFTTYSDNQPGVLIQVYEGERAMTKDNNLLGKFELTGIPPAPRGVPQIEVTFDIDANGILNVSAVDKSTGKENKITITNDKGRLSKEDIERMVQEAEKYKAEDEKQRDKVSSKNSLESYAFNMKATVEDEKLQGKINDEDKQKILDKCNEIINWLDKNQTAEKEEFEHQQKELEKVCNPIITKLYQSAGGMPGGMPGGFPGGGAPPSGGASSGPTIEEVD

B1: J-domain of P. falciparum Hsp40 cochaperone PFA0660w (PFA0660wJ), aa 81-148 (domain or fragment, UniProt Q8I2E1 81-148, looked up)
chain: MDYYTLLGVDKGCSEDDLRRAYLKLAMKWHPDKHVNKGSKVEAEEKFKNICEAYSVLSDNEKRVKYDL
notes: PFA0660w, P. falciparum, pf3d7_0113700, UniProt Q8I2E1, J-domain aa 81-148; codon-optimized synthetic DNA; 15N-labelled (or 13C,15N-labelled) in the NMR assays; unlabelled in the ATP hydrolysis assays; also called PFA0660w J-domain; not shown: His6, N-terminal, cleaved
binding result [1]: binds | fold change in ATP hydrolysis activity of PfHsp70-x upon titration of the J-domain (5 μM chaperone) [2]: ~2 fold
